Reference: patent US20260085338A1

Assays:
[1] = target: phi15 RNA polymerase (Pseudomonas phage phi15); assay: cell-based or functional assay
[2] = target: P. putida RNA polymerase (Pseudomonas putida); assay: cell-based or functional assay

Row | Substance | leaky expression (msfGFP; P. putida, 5 mM Rha) (nM 5(6)-FAM/OD600) [1] | fold induction (FITC-A of +RNAP,-lys against -RNAP,+lys), P. aeruginosa [1] [fold] | fold induction (FITC-A of +RNAP,-lys against -RNAP,+lys), P. putida [1] [fold] | induced (%) cells with FITC-A above 10^4, P. aeruginosa, -RNAP +lys [1] [%] | induced (%) cells with FITC-A above 10^4, P. putida, -RNAP +lys [1] [%] | median FITC-A, flow cytometry, P. aeruginosa, -RNAP +lys (5 mM Rha) [1] [FITC-A] | median FITC-A, flow cytometry, P. putida, -RNAP +lys (5 mM Rha) [1] [FITC-A] | also measured
1 | Pf-10 lysozyme (enzyme) |  |  |  |  |  |  |  | decrease in msfGFP output (leakiness of the phi15 RNAP; P. putida, 4 mM Rha) [1]: 84%
2 | Phi15 GP16 RNA polymerase inhibitor |  |  |  |  |  |  |  | cell growth (OD600) of P. putida after induction with 10 mM Rha [2]: 1.4 OD600
3 | phi15 lysozyme (AA1-9>Pf-10 (AA1-10)) (enzyme) | 23 |  |  |  |  |  |  | 
4 | phi15 lysozyme (G3R) (enzyme) | 57 |  |  |  |  |  |  | 
5 | phi15 lysozyme (G3RQ) (enzyme) | 11 | 130 | 9.64 | 5.94 | 66.7 | 527 | 12700 | leaky expression from the phi15 RNAP (msfGFP; P. aeruginosa, 5 mM rhamnose) (5(6)-FAM/OD600) [1]: 29; leaky expression from the phi15 RNAP against the wild-type phi15 lysozyme (P. aeruginosa, 5 mM rhamnose) [1]: 13 fold lower
6 | phi15 lysozyme (wild-type) (enzyme) | 122 | 7.36 | 4.1 | 77.5 | 80 | 33400 | 17800 | leaky fluorescence with lysozyme induced (P. putida, 4 mM Rha) (nM 5(6)-FAM/OD600) [1]: 77
